For one molecule, Kd results are on record in PMC4174003 (2014).

The target of experiment [1] is PCSK9 (Homo sapiens, UniProt Q8NBP7). The experiment can be described thus: SPR. (In general: SPR reads the build-up and loss of mass on a sensor chip optically.)
In experiment [2] the target is T1, PCSK9 (Mus musculus, UniProt Q80W65).
T1 chain: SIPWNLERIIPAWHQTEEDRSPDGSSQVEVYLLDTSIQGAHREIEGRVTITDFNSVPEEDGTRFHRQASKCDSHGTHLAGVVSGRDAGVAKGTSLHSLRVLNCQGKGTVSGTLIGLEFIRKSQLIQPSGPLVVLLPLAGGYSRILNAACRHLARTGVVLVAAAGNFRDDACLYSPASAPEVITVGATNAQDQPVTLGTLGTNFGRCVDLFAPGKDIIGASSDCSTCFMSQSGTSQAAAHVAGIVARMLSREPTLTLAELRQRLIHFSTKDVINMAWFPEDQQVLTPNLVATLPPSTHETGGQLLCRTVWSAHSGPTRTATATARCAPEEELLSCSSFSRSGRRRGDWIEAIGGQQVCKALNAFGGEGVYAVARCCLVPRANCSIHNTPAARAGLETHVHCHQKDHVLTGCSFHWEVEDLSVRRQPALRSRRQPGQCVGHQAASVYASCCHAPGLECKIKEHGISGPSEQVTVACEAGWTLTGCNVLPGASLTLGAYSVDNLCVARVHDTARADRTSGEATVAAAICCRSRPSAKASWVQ
The experiment can be described thus: SPR.

PCSK9 (Homo sapiens, UniProt Q8NBP7), sequence (Q8NBP7 153-692): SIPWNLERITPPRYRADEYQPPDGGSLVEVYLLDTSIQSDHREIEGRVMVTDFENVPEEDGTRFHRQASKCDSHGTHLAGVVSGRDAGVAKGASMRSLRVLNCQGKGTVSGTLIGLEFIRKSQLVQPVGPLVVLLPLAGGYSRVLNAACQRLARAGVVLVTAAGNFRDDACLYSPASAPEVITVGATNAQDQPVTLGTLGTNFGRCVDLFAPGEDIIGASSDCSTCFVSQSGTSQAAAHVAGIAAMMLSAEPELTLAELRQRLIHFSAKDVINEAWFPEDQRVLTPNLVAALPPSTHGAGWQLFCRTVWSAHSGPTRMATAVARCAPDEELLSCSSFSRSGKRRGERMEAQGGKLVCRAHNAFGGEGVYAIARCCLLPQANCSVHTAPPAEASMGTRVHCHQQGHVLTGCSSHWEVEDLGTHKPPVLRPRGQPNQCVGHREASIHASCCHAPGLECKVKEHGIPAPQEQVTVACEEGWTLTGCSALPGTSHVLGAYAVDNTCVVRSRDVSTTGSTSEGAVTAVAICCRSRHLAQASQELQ

B1: alirocumab (antibody, V domains shown)
VH: EVQLVESGGGLVQPGGSLRLSCAASGFTFNNYAMNWVRQAPGKGLDWVSTISGSGGTTNYADSVKGRFIISRDSSKHTLYLQMNSLRAEDTAVYYCAKDSNWGNFDLWGRGTLVTVSS
VL: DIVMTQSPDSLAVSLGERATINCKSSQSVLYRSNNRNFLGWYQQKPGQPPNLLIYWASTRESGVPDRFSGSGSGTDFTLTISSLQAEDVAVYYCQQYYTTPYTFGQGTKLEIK
For the molecule B1, the Kd in experiment [1] was 0.58 nM; in experiment [2], 2.6 nM.

A word on the Kd: it is the equilibrium constant for the complex coming apart.
